Reference: US20210379195A1, “METHODS FOR ALLOGENEIC HEMATOPOIETIC STEM CELL TRANSPLANTATION” (Magenta Therapeutics, Inc., priority 2018, published 2021)

Target: T1, CD117 (Homo sapiens, UniProt P10721)
Test: Bio-layer interferometry (BLI) binding
From the text: In certain embodiments, an anti-CD117 antibody, or antigen binding fragment thereof, has a certain dissociation rate which is particularly advantageous when used as a part of a conjugate. For example, an anti-CD117 antibody has, in certain embodiments, an off rate constant (Koff) for human CD117 and/or rhesus CD117 of 1×10^−2 to 1×10^−3, 1×10^−3 to 1×10^−4, […] or 1×10^−7 to 1×10^−8, as measured by bio-layer interferometry (BLI). In some embodiments, the antibody or antigen-binding fragment thereof binds CD117 (e.g., human CD117 and/or rhesus CD117) with a KD of about 100 nM or less, about 90 nM or less, about 80 nM or less, about 70 nM or less, about 60 nM or less, about 50 nM or less, about 40 nM or less, about 30 nM or less, about 20 nM or less, about 10 nM or less, about 8 nM or less, about 6 nM or less, about 4 nM or less, about 2 nM or less, about 1 nM or less as determined by a Bio-Layer Interferometry (BLI) assay.
Thus, in certain embodiments, an anti-CD117 antibody comprises a heavy chain comprising a CDR set (CDR1, CDR2, and CDR3) as set forth in SEQ ID Nos: 245, 246, and 247, and a light chain comprising a CDR set as set forth in SEQ ID Nos: 248, 249, and […], internalizes in cells expressing CD117, and has a koff rate of 5×10^−4 s^−1 or less as measured by BLI.

T1 sequence (P10721 26-976): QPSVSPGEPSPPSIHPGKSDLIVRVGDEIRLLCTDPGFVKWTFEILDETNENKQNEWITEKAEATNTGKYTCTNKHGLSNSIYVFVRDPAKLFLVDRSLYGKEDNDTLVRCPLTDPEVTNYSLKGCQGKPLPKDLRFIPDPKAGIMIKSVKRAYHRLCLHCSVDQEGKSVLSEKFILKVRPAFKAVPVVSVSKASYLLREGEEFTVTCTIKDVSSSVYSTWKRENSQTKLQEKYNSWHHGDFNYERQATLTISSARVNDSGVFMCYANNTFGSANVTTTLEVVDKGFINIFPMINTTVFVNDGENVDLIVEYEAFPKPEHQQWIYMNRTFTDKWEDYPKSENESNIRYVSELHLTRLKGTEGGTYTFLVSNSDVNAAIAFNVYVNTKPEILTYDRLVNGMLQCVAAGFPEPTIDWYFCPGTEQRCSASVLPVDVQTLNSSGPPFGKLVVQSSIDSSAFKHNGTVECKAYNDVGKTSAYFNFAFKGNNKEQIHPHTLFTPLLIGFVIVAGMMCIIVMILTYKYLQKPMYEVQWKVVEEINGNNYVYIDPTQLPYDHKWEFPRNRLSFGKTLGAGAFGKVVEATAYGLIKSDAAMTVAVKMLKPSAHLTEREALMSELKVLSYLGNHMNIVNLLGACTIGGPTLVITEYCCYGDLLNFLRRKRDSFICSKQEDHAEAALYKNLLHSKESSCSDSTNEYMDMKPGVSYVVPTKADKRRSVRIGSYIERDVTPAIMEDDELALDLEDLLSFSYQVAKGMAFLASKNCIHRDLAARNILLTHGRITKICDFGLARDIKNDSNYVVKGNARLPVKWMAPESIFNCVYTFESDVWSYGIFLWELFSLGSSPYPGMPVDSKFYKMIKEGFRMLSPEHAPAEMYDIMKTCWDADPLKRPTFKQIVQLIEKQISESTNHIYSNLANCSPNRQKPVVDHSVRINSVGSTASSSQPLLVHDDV

| binding characteristics over CK6 | Molecule |
| --- | --- |
| improved binding characteristics | Ab249: human anti-CD117 antibody derived from CK6, VH SEQ ID NO: 238, VL SEQ ID NO: 242 (antibody, V domains shown) VH: EVQLVQSGAEVKKPGESLKISCKGSGYRFTTSWIGWVRQMPGKGLEWMGIIYPGDSDTRYSPSFQGQVTISADKSISTAYLQWSSLKASDTAMYYCARHGLGYNGYEGAFDIWGQGTLVTVSS VL: DIQMTQSPSSLSASVGDRVTITCRASQGIGSALAWYQQKPGKAPKLLIYDASNLETGVPSRFSGSGSGTDFTLTISSLQPEDFATYYCQQLNGYPLTFGQGTRLEIK |

Target: T1, CD117
Test: In vitro stem cell factor (SCF)-dependent cell proliferation assay (neutral vs antagonist)
Type: cell-based
Parameters: endogenous in cells; host or cells: CD34+ cells dependent on SCF
From the text: Neutral antibodies can be identified using, for example, an in in vitro stem cell factor (SCF)-dependent cell proliferation assay. In an SCF dependent cell proliferation assay, a neutral CD117 antibody will not kill CD34+ cells that are dependent on SCF to divide, as a neutral antibody will not block SCF from binding to CD117 such as to inhibit CD117 activity.

| Molecule | effect on CD117 activity (neutral or antagonist antibody) |
| --- | --- |
| Ab61: anti-CD117 antibody, VH SEQ ID NO: 69, VL SEQ ID NO: 70 (antibody, V domains shown) VH: EVQLLESGGGLVQPGGSLRLSCAASGFTFSSYVMIWVRQAPGKGLEWVSSISGDSVTTYYADSVKGRFTISRDNSKNTLYLQMNSLRAEDTAVYYCAKGPPTYHTNYYYMDVWGKGTTVTVSS VL: DIQMTQSPSSVSASVGDRVTITCRASQGISSWLAWYQQKPGKAPKLLIYAASSLQSGVPSRFSGSGSGTDFTLTISSLQPEDFATYYCQQTNSFPYTFGGGTKVEIK | neutral |
| Ab54: anti-CD117 antibody, VH SEQ ID NO: 29, VL SEQ ID NO: 30 (antibody, V domains shown) VH: QVQLVQSGAEVKKPGSSVKVSCKASGGTFSSYAISWVRQAPGQGLEWMGGIIPIFGTANYAQKFQGRVTITADESTSTAYMELSSLRSEDTAVYYCARGGLDTDEFDLWGRGTLVTVSS VL: DIQMTQSPSSLSASVGDRVTITCRASQSINSYLNWYQQKPGKAPKLLIYAASSLQSGVPSRFSGSGSGTDFTLTISSLQPEDFATYYCQQGVSDITFGGGTKVEIK | Antagonist |
| Ab57: anti-CD117 antibody, VH SEQ ID NO: 49, VL SEQ ID NO: 50 (antibody, V domains shown) VH: QVQLVQSGAEVKKPGSSVKVSCKASGGTFSLYAISWVRQAPGQGLEWMGGIIPHFGLANYAQKFQGRVTITADESTSTAYMELSSLRSEDTAVYYCARGGLDTDEFDLWGRGTLVTVSS VL: DIQMTQSPSSLSASVGDRVTITCRASQSINSYLNWYQQKPGKAPKLLIYAASSLQSGVPSRFSGSGSGTDFTLTISSLQPEDFATYYCQQGVSDITFGGGTKVEIK | Antagonist |
| Ab55: anti-CD117 antibody, VH SEQ ID NO: 19, VL SEQ ID NO: 20 (antibody, V domains shown) VH: QVQLVQSGAEVKKPGSSVKVSCKASGGTFRIYAISWVRQAPGQGLEWMGGIIPDFGVANYAQKFQGRVTITADESTSTAYMELSSLRSEDTAVYYCARGGLDTDEFDLWGRGTLVTVSS VL: DIQMTQSPSSLSASVGDRVTITCRASQSINSYLNWYQQKPGKAPKLLIYAASSLQSGVPSRFSGSGSGTDFTLTISSLQPEDFATYYCQQGVSDITFGGGTKVEIK | Antagonist |
| Ab56: anti-CD117 antibody, VH SEQ ID NO: 39, VL SEQ ID NO: 40 (antibody, V domains shown) VH: QVQLVQSGAEVKKPGSSVKVSCKASGGTFSLYAISWVRQAPGQGLEWMGGIIPAFGTANYAQKFQGRVTITADESTSTAYMELSSLRSEDTAVYYCARGGLDTDEFDLWGRGTLVTVSS VL: DIQMTQSPSSLSASVGDRVTITCRASQSINSYLNWYQQKPGKAPKLLIYAASSLQSGVPSRFSGSGSGTDFTLTISSLQPEDFATYYCQQGVSDITFGGGTKVEIK | Antagonist |
